± gives the uncertainty stated by the source.
Assay: protein stability index of a GFP-peptide fusion (yeast GPS) (PSI 1-4); higher = more stable; sorted into four equal gates, so the index is relative within each strain
Conditions: ubr1∆
Summary of the method: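 Yeast carrying a pooled library were grown to mid-log phase in leucine-free medium. Each library plasmid expresses Cherry and has a tiled 17-residue yeast protein peptide fused downstream of GFP. Cells were sorted into four equal gates by GFP/Cherry ratio, and plasmids from each gate were PCR-amplified, Illumina-sequenced and assigned to strains by barcode. Summing, across gates, the read frequency times the gate number gave each peptide's protein stability index.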

Question: With KENEESLTPTQSDSAKV [PRP28] as the sequence, how does the protein stability index read?
Answer: 3.11 ± 0.053

Question: For KEQTIQLPSKFTCSCNS [RPN14], which protein stability index is on record?
Answer: 2.16 ± 0.038

Question: Which protein stability index does the source give for KFGLLLQVSAQERKDFL [ECM29] here?
Answer: 1.57 ± 0.047

Question: Which protein stability index does the source give for KFLNFRPPNGIKNFKSL [SSN2] here?
Answer: 1.79 ± 0.031

Question: With KFSERRKALPKEPKKLL [DSN1] as the sequence, how does the protein stability index read?
Answer: 2.87 ± 0.053

Question: With KGIAKEHAKWGPAAAIE [RPB3] as the sequence, how does the protein stability index read?
Answer: 2.9 ± 0.055

Question: With KGKDFEITAKEVYDFTH [FAS1] as the sequence, how does the protein stability index read?
Answer: 3.05 ± 0.046

Question: With KGLETIDNGAESSENEA [RPC53] as the sequence, how does the protein stability index read?
Answer: 3.12 ± 0.094

Question: Which protein stability index does the source give for KGNVGFVFTNEPLTEIK [RPP0] here?
Answer: 3.58 ± 0.2

Question: Which protein stability index does the source give for KGRYAPETGDHVVGRIA [RRP4] here?
Answer: 2.67 ± 0.11

Question: Which protein stability index does the source give for KGVATTREKVLEDKLRA [RRP46] here?
Answer: 3.04 ± 0.075

Question: Which protein stability index does the source give for KGVGRRYSNLVCKKADV [RPS18A] here?
Answer: 2.49 ± 0.074

Question: For KHDSLRYRLLSDVSDFE [RPN1], which protein stability index is on record?
Answer: 2.66 ± 0.098

Question: With KHFIQGGSFGNREEFIN [RPL7A] as the sequence, how does the protein stability index read?
Answer: 1.56 ± 0.04

Question: Which protein stability index does the source give for KHSVTEYIFEAHEIIKR [CDC53] here?
Answer: 2.58 ± 0.051

Question: For KIDIIELQKSLSLEEVE [FAS1], which protein stability index is on record?
Answer: 2.79 ± 0.088

Question: Which protein stability index does the source give for KIFWERLKEINGWEKYL [ISW2] here?
Answer: 1.46 ± 0.24

Question: For KILAGLHDTQIEGKLHM [RPN10], which protein stability index is on record?
Answer: 2.98 ± 0.22

Question: For KILRDNIQGITKPAIRR [HHF1], which protein stability index is on record?
Answer: 3.21 ± 0.058

Question: Which protein stability index does the source give for KILSPTMYMEVYTAIYN [CDC53] here?
Answer: 1.74 ± 0.055

Question: For KILVLTGAGVSTSLGIP [SIR2], which protein stability index is on record?
Answer: 2.69 ± 0.051

Question: With KINPFGFEQVKIALGSP [RRI2] as the sequence, how does the protein stability index read?
Answer: 2.78 ± 0.07

Question: With KIPLPEVHDLIGFITSG [POP1] as the sequence, how does the protein stability index read?
Answer: 1.91 ± 0.14

Question: Which protein stability index does the source give for KIQETELKIRSKTENVR [RPT6] here?
Answer: 2.57 ± 0.073

Question: For KIRITLTSTKVKQLENV [RPS20], which protein stability index is on record?
Answer: 2.25 ± 0.068

Question: Which protein stability index does the source give for KIRPWRTFRLNECVCTP [RPO31] here?
Answer: 1.24 ± 0.092

Question: With KISEDPVKALNECIAST [SNF12] as the sequence, how does the protein stability index read?
Answer: 2.82 ± 0.097

Question: With KISGGNDKQGFPMKQGV [RPS6A] as the sequence, how does the protein stability index read?
Answer: 2.85 ± 0.067

Question: Which protein stability index does the source give for KISLRDICLKLNLDSEQ [RPN3] here?
Answer: 3.32 ± 0.11

Question: For KITIGIQRTTESLILKW [RGR1], which protein stability index is on record?
Answer: 1.66 ± 0.04

Question: For KIYMLYSLQPSVDITGG [RPC34], which protein stability index is on record?
Answer: 2.27 ± 0.14

Question: Which protein stability index does the source give for KKFDISNDNLDLISEIL [MED1] here?
Answer: 3 ± 0.049

Question: Which protein stability index does the source give for KKHKQKKVLEIDFFKTD [BRN1] here?
Answer: 2.59 ± 0.035

Question: With KKIVDDTIMENPEPNKK [IRR1] as the sequence, how does the protein stability index read?
Answer: 2.59 ± 0.078

Question: For KKKDPVNQDKANNASQI [SNF12], which protein stability index is on record?
Answer: 3.19 ± 0.068

Question: Which protein stability index does the source give for KKLSKKYNAFIASEVLI [RPL1A] here?
Answer: 1.67 ± 0.023

Question: With KKPRKPRQTKKAKAQAQ [PGD1] as the sequence, how does the protein stability index read?
Answer: 3.12 ± 0.1

Question: Which protein stability index does the source give for KKQNLSSHQRVFKLSTN [SWP82] here?
Answer: 2.06 ± 0.043

Question: With KKQPSILVGGTLKDYQI [SNF2] as the sequence, how does the protein stability index read?
Answer: 2.47 ± 0.083

Question: For KKQVHVYRFVTENAIEE [ISW2], which protein stability index is on record?
Answer: 1.91 ± 0.045

Question: With KKRKAGRPRGRPKKVKL [SNF2] as the sequence, how does the protein stability index read?
Answer: 2.9 ± 0.11

Question: With KKRKNKSSGSSMATPTH [ROX3] as the sequence, how does the protein stability index read?
Answer: 3.28 ± 0.063

Question: For KKRREYFPEGYNNKVGV [SIR2], which protein stability index is on record?
Answer: 2.69 ± 0.047

Question: With KKRSKARKETYSSYIYK [HTB1] as the sequence, how does the protein stability index read?
Answer: 2.95 ± 0.15

Question: With KKSLEEDDEFEDFPIDT [SEM1] as the sequence, how does the protein stability index read?
Answer: 3.02 ± 0.088

Question: For KKSRLGNSFHLMRELLK [PRP8], which protein stability index is on record?
Answer: 2.55 ± 0.043

Question: Which protein stability index does the source give for KKVNYKVTSYDITGDIR [ISW2] here?
Answer: 2.67 ± 0.051

Question: Which protein stability index does the source give for KKVQALQSDKNFLDNCL [ITC1] here?
Answer: 3.05 ± 0.036

Question: Which protein stability index does the source give for KLAAIVEIIDQKKVLID [RPL14A] here?
Answer: 2.73 ± 0.062

Question: For KLAKNLQIGDVVERHLE [RPO31], which protein stability index is on record?
Answer: 3.2 ± 0.12

Question: With KLASTLEKISSSNKDLE [SMC4] as the sequence, how does the protein stability index read?
Answer: 2.82 ± 0.056

Question: With KLDIISDPESERPAIEF [RPN14] as the sequence, how does the protein stability index read?
Answer: 3.18 ± 0.039

Question: Which protein stability index does the source give for KLDKQINMADRSLGLQQ [POP6] here?
Answer: 3.62 ± 0.26

Question: Which protein stability index does the source give for KLDQDDEIYIPINGNEA [CSI1] here?
Answer: 3.45 ± 0.072

Question: Which protein stability index does the source give for KLEKLRNEKRMFLEFQS [SMC2] here?
Answer: 3.49 ± 0.092

Question: With KLGIESKQPNSAIRKCV [RPS23A] as the sequence, how does the protein stability index read?
Answer: 3.41 ± 0.054

Question: Which protein stability index does the source give for KLHEFYLLISKENKKRK [IRR1] here?
Answer: 3.04 ± 0.067

Question: Which protein stability index does the source give for KLKECPFDMGGYFIING [RPB2] here?
Answer: 3.07 ± 0.051

Question: Which protein stability index does the source give for KLKNNASRSQLEKGEIE [YJL039C/NUP192] here?
Answer: 3.08 ± 0.087

Question: With KLLAISKFNNADDVFTG [RPC31] as the sequence, how does the protein stability index read?
Answer: 2.57 ± 0.12

Question: With KLLAKELEEQESESERK [SMC2] as the sequence, how does the protein stability index read?
Answer: 3.14 ± 0.1

Question: With KLLNDLALENGEITKTE [NUT1] as the sequence, how does the protein stability index read?
Answer: 3.18 ± 0.086

Question: Which protein stability index does the source give for KLLTPQDMEAAKEVYKI [GAL11] here?
Answer: 3.49 ± 0.11

Question: For KLNTFENDLLQEFDSEL [SMC3], which protein stability index is on record?
Answer: 2.78 ± 0.1

Question: For KLPKVYKRSIVRNYKPL [SWI1], which protein stability index is on record?
Answer: 2.96 ± 0.12

Question: With KLRSELGYKDTSVIQDL [BRR2] as the sequence, how does the protein stability index read?
Answer: 2.96 ± 0.083

Question: With KLSKVQLYEDLCRYEDT [MED4] as the sequence, how does the protein stability index read?
Answer: 3.21 ± 0.071

Question: With KLSSAENANADLENKFN [YIL149C/MLP2] as the sequence, how does the protein stability index read?
Answer: 3.1 ± 0.042

Question: Which protein stability index does the source give for KLTVCFDDILKVGAEMM [MED2] here?
Answer: 2 ± 0.041

Question: Which protein stability index does the source give for KLWAEIIVKILYYRPHI [GRR1] here?
Answer: 1.46 ± 0.073

Question: With KLYKTPIPIPAFADRLG [PRE10] as the sequence, how does the protein stability index read?
Answer: 1.46 ± 0.2

Question: Which protein stability index does the source give for KMENLMRLIKRVRAESL [YJL039C/NUP192] here?
Answer: 1.12 ± 0.099

Question: With KMLKIWTMAFRTMDDIK [ECM29] as the sequence, how does the protein stability index read?
Answer: 1.96 ± 0.075

Question: Which protein stability index does the source give for KMLMNLHKEQWQSGLKM [RPN11] here?
Answer: 2.13 ± 0.035

Question: Which protein stability index does the source give for KNGALVSNILSAFKFIH [YJL039C/NUP192] here?
Answer: 1.3 ± 0.036

Question: Which protein stability index does the source give for KNHTHNLPGNITVVLGV [RRP4] here?
Answer: 2.66 ± 0.078

Question: Which protein stability index does the source give for KNLIQLISLKLLTFEVT [SRB8] here?
Answer: 1.1 ± 0.071

Question: For KNLVKVLESRVNARDIP [CSN12], which protein stability index is on record?
Answer: 1.76 ± 0.16

Question: Which protein stability index does the source give for KNNILGSNVLKSGKTIV [RRP43] here?
Answer: 3.076 ± 0.03

Question: With KNNLLIPDLSIQNDIYL [RPN12] as the sequence, how does the protein stability index read?
Answer: 2.92 ± 0.047

Question: With KNPRVTKEYLVQNLRSW [CSN9] as the sequence, how does the protein stability index read?
Answer: 3.36 ± 0.091

Question: With KNTQSPQTPLVEPVTER [SNU114] as the sequence, how does the protein stability index read?
Answer: 3.01 ± 0.13

Question: Which protein stability index does the source give for KNYPEYFLKVTFLKYFG [IRR1] here?
Answer: 1.49 ± 0.046

Question: With KPALKVSKEGLYQLVDI [YMR129W/POM152] as the sequence, how does the protein stability index read?
Answer: 3.02 ± 0.082

Question: Which protein stability index does the source give for KPGQNNRQQKKRRFDPS [RRP6] here?
Answer: 2.56 ± 0.08

Question: With KPGSKPEKTSTELVDGR [SIR3] as the sequence, how does the protein stability index read?
Answer: 3.27 ± 0.14

Question: With KPGSTVMLLGTPDANLI [UBP6] as the sequence, how does the protein stability index read?
Answer: 3.38 ± 0.12

Question: For KPLFDFGKTGDQKETKK [YOR098C/NUP1], which protein stability index is on record?
Answer: 3.34 ± 0.082

Question: Which protein stability index does the source give for KPMTAYARADTHFLLNI [RRP6] here?
Answer: 1.87 ± 0.046

Question: With KPQLKFKSPIDNSESHP [RRP6] as the sequence, how does the protein stability index read?
Answer: 3.12 ± 0.034

Question: Which protein stability index does the source give for KPSFSFPGKPVDVQAPT [YOR098C/NUP1] here?
Answer: 2.77 ± 0.068

Question: For KPTSHKQLQQPKSSPLK [SIR4], which protein stability index is on record?
Answer: 2.95 ± 0.032

Question: For KQERSKQERLKENEESL [PRP28], which protein stability index is on record?
Answer: 3.31 ± 0.11

Question: For KQFDSIFNSNKAKIIPG [SIR4], which protein stability index is on record?
Answer: 2.65 ± 0.041

Question: For KQQDAEELFTQLFHSMS [UBP6], which protein stability index is on record?
Answer: 3.14 ± 0.061

Question: With KQTGRDQMVVGWYHSHP [RPN11] as the sequence, how does the protein stability index read?
Answer: 1.53 ± 0.096

Question: For KQVLLRLNPYAKVFAAE [RPL4A], which protein stability index is on record?
Answer: 2.42 ± 0.074

Question: For KQVQISHHLKADTIDHD [YGL172W/NUP49], which protein stability index is on record?
Answer: 2.92 ± 0.043

Question: For KRAEKKAKERLQALKAN [SNF2], which protein stability index is on record?
Answer: 1.3 ± 0.048

Source: the supplement of paper PMC9732359
